# Test results: patent US20240377400A1, “METHODS FOR TREATING A SUBTYPE OF COLORECTAL CANCER” (Cornell University, priority 2021, published 2024)
# B1: PEGPH20: a PEGylated version of human recombinant PH20 hyaluronidase; clinical-grade pegylated hyaluronidase (Halozyme Therapeutics) (protein, UniProt P38567 36-490, looked up)
# Hyaluronidase PH-20: LNFRAPPVIPNVPFLWAWNAPSEFCLGKFDEPLDMSLFSFIGSPRINATGQGVTIFYVDRLGYYPYIDSITGVTVNGGIPQKISLQDHLDKAKKDITFYMPVDNLGMAVIDWEEWRPTWARNWKPKDVYKNRSIELVQQQNVQLSLTEATEKAKQEFEKAGKDFLVETIKLGKLLRPNHLWGYYLFPDCYNHHYKKPGYNGSCFNVEIKRNDDLSWLWNESTALYPSIYLNTQQSPVAATLYVRNRVREAIRVSKIPDAKSPLPVFAYTRIVFTDQVLKFLSQDELVYTFGETVALGASGIVIWGTLSIMRSMKSCLLLDNYMETILNPYIINVTLAAKMCSQVLCQEQGVCIRKNWNSSDYLHLNPDNFAIQLEKGGKFTVRGKPTLEDLEQFSEKFYCSCYSTLSCKEKADVKDTDAVDVCIADGVCIDAFLKPPMETEEPQIFYNASPSTLS
# modifications: PEGylated
# How the values were obtained:
# MTO-sgC tumors = assay: Subcutaneous MTO-sgC control tumors in syngeneic C57BL/6J mice treated with PEGPH20; assay type: in vivo, mouse; details: PEGPH20 0.0375 mg/Kg twice a week, 3 weeks
# Experimental: FIGS. 8F-8J illustrate subcutaneous injection of sgPrkci/Prkcz and sgC MTOs in WT mice. Mice were treated twice a week with Veh or PEGPH20 0.0375 mg/kg for 3 weeks (MTOs: sgC n=10, sgC PEGPH20-treated n=10, sgPrkci/Prkcz n=10, and sgPrkci/Prkcz PEGPH20-treated n=8). Experimental design (F); Immunohistochemistry (IHC) for HA, Masson's trichrome, and αSMA (G) staining quantification (H); tumor volume (I) and tumor weight (J). Scale bars, 100 μm.
# For colonoscopy-guided orthotopic injection in the colon submucosa using mouse tumor organoids (MTOs), a 10 μl organoid suspension of equivalent to 40-50 MTOs admixed with 10% Matrigel (Corning) was directly injected into the colonic submucosa of 7 weeks old C57BL/6 mice. 4 weeks after implantation, tumors were collected and analyzed histologically. Orthotopic tumor sizes were measured by caliper after mice were sacrificed. For xenografts using MTOs, a 100 μl cell suspension of equivalent to 0.5×10^6 cells of sgPrkci/Prkcz or sgC MTOs admixed with 30% Matrigel (Corning) was directly injected subcutaneously into the right flank of 7 weeks old C57BL/6 mice. […] Tumors were measured twice a week. Mice were euthanized three weeks after treatment and tumors were analyzed histologically. […]
# MTO-sgPrkci/sgPrkcz = assay: PEGPH20 treatment in vitro of mouse tumor organoids, qPCR; assay type: cell-based; details: PEGPH20 2.5 μg/ml every other day for 6 days
# From the text: To perform PRKCI and PRKCZ editing in PDOs, single-guide RNA sequences targeting PRKCI and PRKCZ (Table 3), were purchased from Synthego and transduced into PDOs with recombinant Streptococcus pyogenes Cas9 protein (Truecut Cas9 Protein v2, Thermo. To knock out Prkcz in mouse sgPrcki MTOs (Linares et al., 2021), single-guide RNA sequence targeting Prkcz (Table 3) was purchased from Synthego and transduced into sgPrcki MTOs as described above. PRKCI, PRKCZ, and Prkcz were knocked out using the Neon Transfection System 1 (Invitrogen) following the manufacturer's protocol and single clones were expanded and screened by protein immunoblotting. For the deletion of Prkci and Prkcz in normal organoids, 500 nM 4-OH-tamoxifen was added the second day after organoids were passaged. […]
# Total RNA from cultured organoids was extracted using TRIZOL reagent (Invitrogen) and purified by the RNeasy Mini Kit (QIAGEN), followed by DNase treatment. After quantification using a Nanodrop 1000 spectrophotometer (Thermo Scientific), RNA was either processed for RNA-seq or reverse-transcribed using random primers and MultiScribe Reverse Transcriptase (Applied Biosystems). Gene expression was analyzed by amplifying 500 ng of the complementary DNA using the CFX96 Real Time PCR Detection System with SYBR Green Master Mix (BioRad) and primers described in Table 2. […]
# [1] = test system: MTO-sgPrkci/sgPrkcz tumors; assay: Subcutaneous sgPrkci/Prkcz MTO tumors: PEGPH20 combined with anti-PD-L1; assay type: in vivo, mouse
# Experimental: FIGS. 13B-13F illustrate Subcutaneous injection of sgPrkci/Prkcz MTOs in WT mice treated twice a week with PEGPH20 (0.0375 mg/kg) and αPD-L1 (5 mg/kg) for 4 weeks (n:Veh=14, PEGPH20-treated=15 and PEGPH20-treated with αPD-L1=15). Experimental design (B); tumor volume (C); tumor weight (D); IHC for HA, αSMA, CD8, FOXP3, S100a8, and CD19 of tumors (E) and quantification (F). Scale bars, 100 μm. Results are shown as mean±SEM *p<0.05, **p<0.01, ***p<0.001, ****p<0.0001.
# For colonoscopy-guided orthotopic injection in the colon submucosa using mouse tumor organoids (MTOs), a 10 μl organoid suspension of equivalent to 40-50 MTOs admixed with 10% Matrigel (Corning) was directly injected into the colonic submucosa of 7 weeks old C57BL/6 mice. 4 weeks after implantation, tumors were collected and analyzed histologically. Orthotopic tumor sizes were measured by caliper after mice were sacrificed. For xenografts using MTOs, a 100 μl cell suspension of equivalent to 0.5×10^6 cells of sgPrkci/Prkcz or sgC MTOs admixed with 30% Matrigel (Corning) was directly injected subcutaneously into the right flank of 7 weeks old C57BL/6 mice. Tumors were allowed to grow for 14 days, and mice were randomly divided to receive vehicle, n=20, or PEGPH20 (0.0375 mg/kg, 2 days each week) via retro-orbital injection, n=18. Tumors were measured twice a week. Mice were euthanized three weeks after treatment and tumors were analyzed histologically. For the combination therapy of anti-PD-L1 (Clone B7-H1, Bioxcell) antibody and PEGPH20, mice were injected with a dose of 5 mg/kg (body mass) of anti-PD-L1 antibody in combination with PEGPH20 (n=15) twice a week for 4 weeks until they were sacrificed.
molecule,measurement,setting,value
B1,growth properties of MTO-sgC tumors,MTO-sgC tumors,did not affect
same,Anxa10 expression,MTO-sgPrkci/sgPrkcz,reduced
same,Clu levels,MTO-sgPrkci/sgPrkcz,without changes
same,CD8+ T and B cells in the tumor,"[1]; IHC CD8, CD19",sufficient to bring
same,amount of immunosuppressive myeloid and Tregs,"[1]; IHC S100a8, FOXP3",reduce
same,HA content and intensity of αSMA+ stromal staining,"[1]; IHC, PEGPH20 0.0375 mg/kg, 4 weeks",reduced
